Values quoted from earlier work in patent US20210106646A1, “Combination Of A Novel Topical Gel And Oral Supplements For Healing Diabetic Foot And Other Wounds” (Smart Products & Services Inc. (dba Aloevive), priority 2019, published 2021).

Conditions: topical use, per product website

Substance: Regranex Gel: Regranex (becaplermin) Gel is a recombinant human platelet-derived growth factor used to treat lower extremity diabetic ulcers
- rare but serious side effects: allergic reactions such as rash, itching, swelling (especially of the face/tongue/throat), dizziness, and trouble breathing
